± gives the standard deviation of the averaged measurements.
What follows are sequences tested on Saccharomyces cerevisiae (assay: protein stability index of tFT-peptide fusion (C-terminal peptide) (PSI (0-1 scale)); higher = more stable (slower turnover)). Details: genetic background: wild type; temperature: 30 C.
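Also: PSI is a weighted mean of sequencing reads over stability bins, variants kept only with over 10 reads, mCherry proximal and sfGFP distal, peptide attached via GGGS linker.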

| Sequence | protein stability index |
| --- | --- |
| SLSFPPNTFSFP | 0.738 ± 0.059 |
| SLSFTFPLAPLL | 0.643 ± 0.12 |
| SLSLSFVLSSCS | 0.721 ± 0.014 |
| SLSPLPCTVLRL | 0.684 ± 0.05 |
| SLSPWRLPIGGR | 0.734 ± 0.035 |
| SLSQWTSPGLNI | 0.708 ± 0.091 |
| SLSSVAYAIIIL | 0.561 ± 0.021 |
| SLTYSDGCTKSI | 0.742 ± 0.043 |
| SLVLFRSCSFFS | 0.669 ± 0.024 |
| SLVLPIFRIVSF | 0.573 ± 0.039 |
| SLWIKRSPVFSF | 0.563 ± 0.014 |
| SLWTDGYIFVLE | 0.732 ± 0.016 |
| SLYRKTLCMAYS | 0.558 ± 0.019 |
| SMAFLNQRPGIL | 0.685 ± 0.017 |
| SMGGDTFILFAV | 0.67 ± 0.023 |
| SNAIKTEESKGE | 0.734 ± 0.023 |
| SNCARGNREFYW | 0.733 ± 0.058 |
| SNCRLCGFGYVE | 0.6966 ± 0.0062 |
| SNLHCLQRGYSV | 0.725 ± 0.011 |
| SNLLKQHKDLFL | 0.7162 ± 0.0027 |
| SNRQDHACGGSA | 0.687 ± 0.11 |
| SNTSRIQGGWLK | 0.699 ± 0.18 |
| SPANLGFKHSGR | 0.674 ± 0.021 |
| SPAPALFCPARF | 0.739 ± 0.022 |
| SPAPPPPVTPPL | 0.662 ± 0.013 |
| SPAPRPSPVPGL | 0.686 ± 0.015 |

| Sequence | protein stability index |
| --- | --- |
| SPARLHLPPFSP | 0.717 ± 0.016 |
| SPASPNALPAAP | 0.741 ± 0.046 |
| SPCMLLAVPHRL | 0.728 ± 0.044 |
| SPCTSPARLKLP | 0.559 ± 0.063 |
| SPEGYLLSPRCT | 0.737 ± 0.049 |
| SPFLFPRTVVGA | 0.671 ± 0.11 |
| SPFLPAHPPPTA | 0.714 ± 0.065 |
| SPFLTPSSHPPS | 0.681 ± 0.03 |
| SPGFSPPFPPLS | 0.776 ± 0.011 |
| SPGLLPLALFSL | 0.678 ± 0.14 |
| SPGPTLLSPPSP | 0.691 ± 0.017 |
| SPGSSPPLLSPH | 0.761 ± 0.013 |
| SPHPLPRPTTRP | 0.708 ± 0.12 |
| SPHPPPSRLPPP | 0.709 ± 0.029 |
| SPHPPPSSPPPP | 0.674 ± 0.097 |
| SPHPTAPFVSTL | 0.68 ± 0.087 |
| SPHVAPRKLQVS | 0.56147 ± 0.00038 |
| SPLGAHPTRIVF | 0.6915 ± 0.00071 |
| SPLHASLPPVSL | 0.704 ± 0.025 |
| SPLISYQPPTDP | 0.725 ± 0.061 |
| SPLLLSSPRPSP | 0.735 ± 0.062 |
| SPLPLASPFGFP | 0.719 ± 0.033 |
| SPLPPPPAPFLP | 0.6762 ± 0.0028 |
| SPLPPPTPLPLV | 0.8075 ± 0.0021 |
| SPLPPSPPPLLF | 0.762 ± 0.17 |
| SPLSDPPPYRPP | 0.591 ± 0.028 |

| Sequence | protein stability index |
| --- | --- |
| SPLTTFPPHRVS | 0.711 ± 0.014 |
| SPPAPPLALPPP | 0.737 ± 0.057 |
| SPPASFPLPPPP | 0.6802 ± 0.0015 |
| SPPCPFPTPACP | 0.7165 ± 0.002 |
| SPPCPLPLPPPP | 0.626 ± 0.057 |
| SPPGPLPPRRPF | 0.725 ± 0.074 |
| SPPHTGMLRLLT | 0.7 ± 0.063 |
| SPPLPARSQSSI | 0.708 ± 0.029 |
| SPPLPSPPTLRL | 0.701 ± 0.015 |
| SPPLRPPAPLVL | 0.631 ± 0.14 |
| SPPPAPPPPPQT | 0.66492 ± 0.00031 |
| SPPPAPRPPLPP | 0.709 ± 0.041 |
| SPPPFPHPHQLP | 0.726 ± 0.029 |
| SPPPILPSSPSS | 0.698 ± 0.087 |
| SPPPLDSFPFIT | 0.659 ± 0.051 |
| SPPPLHPPPPAL | 0.637 ± 0.046 |
| SPPPMPLPLIPL | 0.663 ± 0.066 |
| SPPPPGPLPPPS | 0.718 ± 0.038 |
| SPPPPILPCKPL | 0.716 ± 0.031 |
| SPPPPPFCPLPA | 0.646 ± 0.014 |
| SPPPPPPSYPAH | 0.772 ± 0.051 |
| SPPPPTLPPAYL | 0.6577 ± 0.0025 |
| SPPPPTPPPPPA | 0.718 ± 0.045 |
| SPPPSRHPPPRL | 0.708 ± 0.016 |
| SPPRLPPLAAPP | 0.676 ± 0.07 |
| SPPRPPRPPRRA | 0.599 ± 0.02 |

| Sequence | protein stability index |
| --- | --- |
| SPPRSPPDFVPF | 0.684 ± 0.0088 |
| SPPRSVSVGVHK | 0.637 ± 0.03 |
| SPPSPAFTPAPF | 0.669 ± 0.077 |
| SPPTRAPISSIS | 0.733 ± 0.0087 |
| SPPVRLPSASTV | 0.681 ± 0.036 |
| SPPVTASLCLFS | 0.692 ± 0.016 |
| SPRFVPPPAILR | 0.558 ± 0.0088 |
| SPRFYSFRPSPP | 0.695 ± 0.019 |
| SPRGLQSAPSGI | 0.7399 ± 0.0057 |
| SPRPAPPRSTPP | 0.67 ± 0.063 |
| SPSAVPPALLYS | 0.747 ± 0.2 |
| SPSGLPLHFSFL | 0.704 ± 0.012 |
| SPSLPPLPRSPR | 0.68 ± 0.053 |
| SPSPPLPSPRPP | 0.594 ± 0.094 |
| SPSRPILRPRVV | 0.635 ± 0.02 |
| SPTPSPCIPSPP | 0.701 ± 0.0089 |
| SPTRALYISFFY | 0.655 ± 0.075 |
| SPYLGSALPPDR | 0.628 ± 0.07 |
| SQCGSLQIGRHL | 0.714 ± 0.052 |
| SQLERSNHGWVR | 0.651 ± 0.064 |
| SQMGRGRQRGDR | 0.741 ± 0.024 |
| SQSPPTSPAPHD | 0.706 ± 0.016 |
| SQTIRTGGLCHL | 0.886 ± 0.041 |
| SQWGRVTMNLCG | 0.706 ± 0.012 |
| SRAARLPLFYFD | 0.675 ± 0.014 |
| SRCSAGVASGVL | 0.636 ± 0.0069 |

| Sequence | protein stability index |
| --- | --- |
| SRCSEPVGGGGA | 0.704 ± 0.085 |
| SRGAIGGSACFR | 0.652 ± 0.037 |
| SRGRILAVRNTT | 0.713 ± 0.021 |
| SRGSTGERGRGK | 0.669 ± 0.027 |
| SRIASKNRKRKR | 0.774 ± 0.024 |
| SRKKDEGEYHRK | 0.68 ± 0.036 |
| SRLPSPFPSPPL | 0.737 ± 0.019 |
| SRLRITIRNVHS | 0.629 ± 0.048 |
| SRPFLPPSPRPA | 0.757 ± 0.11 |
| SRPLLLLPCLLP | 0.643 ± 0.014 |
| SRPLPPPLPPPP | 0.628 ± 0.025 |
| SRPPSPHPLPPP | 0.656 ± 0.027 |
| SRRERALGQQPI | 0.679 ± 0.011 |
| SRRLAFSTVLPA | 0.664 ± 0.035 |
| SRRWRPDSSRIQ | 0.667 ± 0.1 |
| SRSHSPLCPSFA | 0.604 ± 0.026 |
| SRTLYSHLLFFP | 0.66 ± 0.0097 |
| SRTPLASTPPHR | 0.761 ± 0.11 |
| SRTSRGPPFSSS | 0.688 ± 0.043 |
| SRVEVEVKIGFQ | 0.6331 ± 0.0061 |
| SRVIFSQSLSVP | 0.654 ± 0.038 |
| SRVRTIVRNGSR | 0.777 ± 0.11 |
| SRVSRGEWGVGI | 0.659 ± 0.023 |
| SRVVTSRLVLSS | 0.606 ± 0.017 |
| SRVWVGQMIRGR | 0.664 ± 0.019 |
| SSERVLVRRRGS | 0.566 ± 0.12 |

| Sequence | protein stability index |
| --- | --- |
| SSFGIVWKKDAI | 0.736 ± 0.053 |
| SSGAIKPDFRMA | 0.7446 ± 0.005 |
| SSGSRCQQKIRY | 0.66 ± 0.11 |
| SSLGNSFYLSPH | 0.683 ± 0.033 |
| SSLPRLGSSPRR | 0.66 ± 0.019 |
| SSLPSSLSPLTS | 0.699 ± 0.024 |
| SSLRSFPLLEHT | 0.6857 ± 0.0012 |
| SSLSFHPLPLAP | 0.695 ± 0.03 |
| SSLSPGFPLPSS | 0.6989 ± 0.0014 |
| SSLTCLLFPPGY | 0.695 ± 0.012 |
| SSNKSKNNHSNM | 0.688 ± 0.031 |
| SSNVTVLGVLYC | 0.6973 ± 0.0049 |
| SSPAPPPPSPAS | 0.744 ± 0.043 |
| SSPAYPYWTRIF | 0.777 ± 0.14 |
| SSPFPPLTTPSP | 0.7245 ± 0.0044 |
| SSPFPVPLSRPS | 0.6759 ± 0.0032 |
| SSPLTPAPLCSS | 0.702 ± 0.1 |
| SSPLYSLLVLFQ | 0.54 ± 0.037 |
| SSPPFPLSLPLY | 0.682 ± 0.0017 |
| SSPTSSAPPPFL | 0.697 ± 0.022 |
| SSPYPGNVVTST | 0.7133 ± 0.0015 |
| SSRAGVRRPHSR | 0.685 ± 0.053 |
| SSRCRGYLFVDG | 0.738 ± 0.043 |
| SSRELVDGVGIA | 0.763 ± 0.068 |
| SSRVALRIPGIG | 0.678 ± 0.024 |
| SSRVWPRRRSTA | 0.634 ± 0.052 |

| Sequence | protein stability index |
| --- | --- |
| SSSLSRLIPRDV | 0.774 ± 0.062 |
| SSSPFVSDFLTL | 0.673 ± 0.042 |
| SSSPLPPLRLCL | 0.743 ± 0.041 |
| SSTLVAFRFPSP | 0.7014 ± 0.0043 |
| SSWWGARVARRG | 0.756 ± 0.041 |
| SSYGPAKSLGCA | 0.684 ± 0.023 |
| STASSFFFFCCF | 0.664 ± 0.026 |
| STCVRSRTCETP | 0.675 ± 0.021 |
| STGAVGVSVCEG | 0.64 ± 0.022 |
| STGPFFMIKGSF | 0.72 ± 0.027 |
| STGRTSVNLCFS | 0.706 ± 0.041 |
| STPFALVFLPFP | 0.688 ± 0.034 |
| STPHPPPILHVL | 0.581 ± 0.013 |
| STPPPRSLPSPP | 0.716 ± 0.045 |
| STRGGLCFLRWV | 0.5543 ± 0.0019 |
| STSLLTRTSSKL | 0.792 ± 0.015 |
| STTCPTGLTVGR | 0.69 ± 0.054 |
| STVESPNSLPPL | 0.676 ± 0.037 |
| STVGRFPLSFHH | 0.726 ± 0.062 |
| STWSLLKVGPAR | 0.6785 ± 0.0015 |
| SVAPRPPFPFAI | 0.694 ± 0.026 |
| SVAQHLRNGNMC | 0.745 ± 0.13 |
| SVAWGGGVVEWG | 0.661 ± 0.11 |
| SVDRVIPQERQS | 0.697 ± 0.013 |
| SVGCRRGMDSRV | 0.702 ± 0.04 |
| SVGIWSYGLCWF | 0.753 ± 0.055 |

| Sequence | protein stability index |
| --- | --- |
| SVGQWSGGRACW | 0.751 ± 0.043 |
| SVGSSGFMLFCL | 0.741 ± 0.18 |
| SVHTQLSPMDTT | 0.64 ± 0.018 |
| SVILRMIGQKIK | 0.596 ± 0.038 |
| SVIRTRYSSARM | 0.662 ± 0.057 |
| SVKESKIQQNRE | 0.705 ± 0.11 |
| SVLRRKDKGKRG | 0.654 ± 0.014 |
| SVLVCSAIVIRK | 0.5998 ± 0.00079 |
| SVLVHSFRSVNV | 0.66 ± 0.002 |
| SVPPPPRTPSSI | 0.666 ± 0.03 |
| SVRSVFVFGVIK | 0.664 ± 0.017 |
| SVRSYYVRSMLE | 0.692 ± 0.076 |
| SVRVRKGRYDNK | 0.707 ± 0.018 |
| SVSGRYYAVRVR | 0.566 ± 0.0072 |
| SVSVLSPPPLPP | 0.636 ± 0.015 |
| SVVFSQCLVNLG | 0.659 ± 0.062 |
| SVVLGSVHVLTR | 0.661 ± 0.015 |
| SVWGGVPLVRET | 0.6854 ± 0.0015 |
| SWAFAGGGAATG | 0.694 ± 0.011 |
| SWFSPMCTTSPR | 0.677 ± 0.04 |

— the supplement of paper PMC10724198
